Experimental data taken from PMC4658703.
Like-named read-outs stand apart in the source and are kept apart here.

Legend:
Assay in all cases: SPR
Human IGF2 (human) [1] = target: Human IGF2 (human)
Chicken IGF2 (chicken) [2] = target: Chicken IGF2 (chicken) (UniProt P33717)
[3] = target: Echidna IGF2 (peak 2), purified recombinant (echidna)
Human IGF2 (human) [4] = target: Human IGF2 (human); remark: listed apart in the source
Chicken IGF2 (chicken) [5] = target: Chicken IGF2 (chicken) (UniProt P33717); remark: listed apart in the source
[6] = target: Echidna IGF2 (peak 2), purified recombinant (echidna); remark: listed apart in the source
Human IGF2 (human) [7] = target: Human IGF2 (human); remark: listed apart in the source
[8] = target: Echidna IGF2 (peak 2), purified recombinant (echidna); remark: listed apart in the source

Sequence of Human IGF2R domain 11 (wild type) (P11717 1508-1650): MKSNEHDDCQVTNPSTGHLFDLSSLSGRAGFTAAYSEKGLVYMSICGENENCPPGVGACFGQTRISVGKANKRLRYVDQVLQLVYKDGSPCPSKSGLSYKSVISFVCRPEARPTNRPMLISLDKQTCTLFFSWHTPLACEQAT
Sequence of Chicken IGF2 (chicken) (P33717 24-91): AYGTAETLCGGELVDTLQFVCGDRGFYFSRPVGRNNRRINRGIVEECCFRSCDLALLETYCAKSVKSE

| Substance | Kd (Human IGF2 (human) [1]) [nM] | Kd (Chicken IGF2 (chicken) [2]) [nM] | Kd [3] [nM] | Kd (Human IGF2 (human) [4]) [nM] | kd1 (two state model, first step) (Human IGF2 (human) [4]) [s⁻¹] | Kd (Chicken IGF2 (chicken) [5]) [nM] | ka1 (two state model, first step) (Chicken IGF2 (chicken) [5]) [m^-1 s^-1] | Kd [6] [nM] | kd1 (two state model, first step) [6] [s⁻¹] | ka1 (two state model, first step) (Human IGF2 (human) [4]) [m^-1 s^-1] | Kd (Human IGF2 (human) [7]) [nM] | Kd [8] [nM] | kd1 (two state model, first step) (Chicken IGF2 (chicken) [5]) [s⁻¹] |
| --- | --- | --- | --- | --- | --- | --- | --- | --- | --- | --- | --- | --- | --- |
| Opossum IGF2R domain 11 (domain or fragment) | 164 | 219 | 157 | 130 | 0.108 | 171 | 1.76e+06 | 135 | 0.106 |  |  |  |  |
| Human IGF2R domain 11^(E1544K, K1545S, L1547V) (clone E4) (from UniProt P11717 1508-1650) (domain or fragment) | 15.5 |  |  | 15.3 | 0.044 |  |  |  |  | 2.76e+06 |  |  |  |
| Chicken IGF2R domain 11 with echidna CD loop (domain or fragment) |  |  |  | 427 |  |  |  |  |  |  | 325 | 328 |  |
| Echidna IGF2R domain 11 (domain or fragment) | 329 | 412 | 385 | 244 | 0.106 | 244 |  | 256 | 0.138 |  |  |  | 0.259 |
| Human IGF2R domain 11 (wild type) (from UniProt P11717 1508-1650) (domain or fragment) | 64 |  | 77 | 46 | 0.23 |  |  | 53 | 0.106 | 5e+06 |  |  |  |
